Two molecules from patent US20180244756A1 (US Dept. of Health and Human Services, published 2018) can be followed below.

The target in this assay is T1, MERS-CoV S-[change] protein, England1 strain (MERS-CoV, England1 strain, UniProt K9N5Q8 19-1290).
T1 sequence: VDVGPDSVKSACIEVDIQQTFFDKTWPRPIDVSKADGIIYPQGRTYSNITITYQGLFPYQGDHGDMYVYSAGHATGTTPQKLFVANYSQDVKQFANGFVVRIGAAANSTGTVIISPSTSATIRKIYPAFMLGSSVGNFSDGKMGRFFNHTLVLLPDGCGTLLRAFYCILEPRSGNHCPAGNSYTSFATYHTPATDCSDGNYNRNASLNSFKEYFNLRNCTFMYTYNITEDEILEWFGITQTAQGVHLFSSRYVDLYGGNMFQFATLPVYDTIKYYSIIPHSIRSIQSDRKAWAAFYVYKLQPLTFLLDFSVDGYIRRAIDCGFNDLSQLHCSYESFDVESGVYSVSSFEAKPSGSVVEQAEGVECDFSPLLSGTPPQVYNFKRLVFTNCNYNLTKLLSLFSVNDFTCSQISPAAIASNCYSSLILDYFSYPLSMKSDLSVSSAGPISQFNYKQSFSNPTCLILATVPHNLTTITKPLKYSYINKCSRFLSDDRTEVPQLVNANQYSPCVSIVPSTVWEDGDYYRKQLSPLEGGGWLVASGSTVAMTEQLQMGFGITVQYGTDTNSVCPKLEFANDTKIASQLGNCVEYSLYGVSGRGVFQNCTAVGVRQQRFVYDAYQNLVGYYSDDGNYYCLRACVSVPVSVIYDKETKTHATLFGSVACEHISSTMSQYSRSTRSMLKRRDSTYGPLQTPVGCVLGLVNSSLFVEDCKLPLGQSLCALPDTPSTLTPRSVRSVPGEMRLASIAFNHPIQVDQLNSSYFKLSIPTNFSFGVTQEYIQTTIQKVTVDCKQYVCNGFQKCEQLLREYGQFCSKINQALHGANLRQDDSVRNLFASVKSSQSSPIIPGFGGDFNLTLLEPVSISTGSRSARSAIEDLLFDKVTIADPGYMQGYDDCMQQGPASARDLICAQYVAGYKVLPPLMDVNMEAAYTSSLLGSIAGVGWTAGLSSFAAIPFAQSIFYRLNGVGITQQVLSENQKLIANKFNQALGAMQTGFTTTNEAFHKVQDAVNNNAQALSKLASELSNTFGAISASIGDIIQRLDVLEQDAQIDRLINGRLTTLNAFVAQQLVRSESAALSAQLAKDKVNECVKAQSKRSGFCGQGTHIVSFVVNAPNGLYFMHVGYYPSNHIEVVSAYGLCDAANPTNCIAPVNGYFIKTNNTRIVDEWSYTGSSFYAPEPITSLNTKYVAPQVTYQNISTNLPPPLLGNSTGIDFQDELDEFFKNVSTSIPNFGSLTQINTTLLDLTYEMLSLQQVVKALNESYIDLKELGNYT
As to the kind of experiment: ELISA, hybridoma supernatant. For orientation: In an ELISA, binding on a coated surface is turned into a signal by an enzyme label.

B1: G2 antibody (antibody, V domains shown)
VH: QVQLQQSGGELVKPGASVKLSCKTSGFTFSSSYISWLKQKPGQSLEWIAWIYAGTGGTEYNQKFTGKAQVTVDTSSSTAYMQFSSLTTEDSAIYYCARGGSSFAMDYWGQGTSVTVSS
VL: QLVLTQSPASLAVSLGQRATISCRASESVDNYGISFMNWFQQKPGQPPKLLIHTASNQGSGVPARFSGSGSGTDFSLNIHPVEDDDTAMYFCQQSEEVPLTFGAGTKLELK
As to B1, the “ELISA (unit not given)” value came to 0.58.

B2: G4 antibody (antibody, V domains shown)
VH: QVQLQQSGPELVRPGVSVKISCKGSGYTFTDYAIHWVKQSHAKSLEWIGVFSTYYGNTNYNQKFKGRATMTVDKSSSTAYMELARLTSEDSAIYYCARKSYYVDYVDAMDYWGQGTSVTVSS
VL: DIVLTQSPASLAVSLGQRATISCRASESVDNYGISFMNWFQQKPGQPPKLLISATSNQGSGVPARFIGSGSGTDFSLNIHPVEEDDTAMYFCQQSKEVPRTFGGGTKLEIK
B2: the “ELISA (unit not given)” value was 2.8.
